Assays:
Test in all cases: ELISA, peptide coated, antibody 10 µg/ml
NM16 (influenza A virus) = molecular target: NM16 (influenza A virus)
NM17 (influenza A virus) = molecular target: NM17 (influenza A virus)
M15 (influenza A virus) = molecular target: M15 (influenza A virus)
[1] = molecular target: M2 peptide (extracellular 23-amino-acid M2 peptide) (influenza A virus)
M16 (influenza A virus) = molecular target: M16 (influenza A virus)
NM15 (influenza A virus) = molecular target: NM15 (influenza A virus)

B1: C40G1 (antibody, V domains shown)
VH: QLQLQESGPGLVKPSETLSLTCTVSGGSISSSFYYCGWIRQPPGKGLEWIGSIYYRGSTYYNPSLKSRVTISVDTSKNQFSLKLSSVTAADTAVYYCARRVTMVRGVKGDYFDYWGQGTLVTVSS
VL: DIQMTQSPSSLSASVGDRVTITCRASQGISSWLAWYQQKPEKVPKSLIYAASSLQSGVPSRFSGSGSGTDFTLTISSLQPEDFATYYCQQYNYYPLTFGGGTKVEIKR
- ELISA (OD450) (NM16 (influenza A virus)): 2.37 OD450
- ELISA (OD450) (NM17 (influenza A virus)): 2.41 OD450
- ELISA (OD450) (M15 (influenza A virus)): 2.73 OD450
- ELISA (OD450) [1]: 2.56 OD450
- ELISA (OD450) (M16 (influenza A virus)): 2.64 OD450
- ELISA (OD450) (NM15 (influenza A virus)): 2.51 OD450

From patent publication US20050170334A1
